The results in this text go back to patent US20200338216A1.

In this experiment the target is murine PDL-1 (murine) (UniProt Q9EP73). Description: bead based FACS of purified EVADER vectors with fluorescent-labelled antibody.
UniProt Q9EP73, sequence (Q9EP73 19-290): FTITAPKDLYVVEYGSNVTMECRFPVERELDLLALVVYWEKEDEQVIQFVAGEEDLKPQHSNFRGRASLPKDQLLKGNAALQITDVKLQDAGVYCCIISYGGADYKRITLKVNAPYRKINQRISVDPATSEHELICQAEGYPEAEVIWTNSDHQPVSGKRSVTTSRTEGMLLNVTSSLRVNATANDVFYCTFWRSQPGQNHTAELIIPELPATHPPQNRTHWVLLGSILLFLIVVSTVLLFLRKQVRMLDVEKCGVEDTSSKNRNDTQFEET

Regarding “anti-murine PDL-1 (anti-PDL-1-PE-A, Abcam catalog number ab213480) (antibody)”, the percent of EVADER vector particles positive (level on the surface) turned out to be 75.3%.
